# Reference: patent US20180128830A1, “DETECTION OF HUMAN CYTOMEGALOVIRUS IN BREAST CANCER” (priority 2015, published 2018)
# Values joined by “and” are separate entries in the source; they are usually repeats but may differ in a detail not shown here. Equal values may be shown once.
# B1: cmvIL-10 (protein)
# chain: ATTTTIKNTKPQCRPEDYATRLQDLRVTFHRVKPTLQREDDYSVWLDGTVVKGCWGCSVMDWLLRRYLEIVFPAGDHVYPGLKTELHSMRSTLESIYKDMRQCPLLGCGDKSVISRLSQEAERKSDNGTRKGLSELDTLFSRLEEYLHSRK
# Legend:
# [1] = tested on: Stat3; experiment: Western blot for Stat3 phosphorylation in MDA-MB-231 cells; assay type: cell-based, human; conditions: 100 ng/ml, 15 min
# Experimental: For western blotting, cells were treated with 100 ng/ml cmvIL-10, hIL-10, IFNγ or PBS for 15 min, then harvested into cell lysis buffer (150 mM NaCl, 20 mM HEPES, 0.5% Triton-X-100, 1 mM NaOV4, 1 mM EDTA, 0.1% NaN3). Lysates were clarified, proteins were separated via SDS-PAGE, and then transferred to a nitrocellulose membrane. Then membrane was incubated in blocking solution (5% milk+1×TBS-T) for 1 hr, then probed with primary antibody at a 1:1000 dilution (total Stat3 or pStat3, total Stat1 or pStat1) in blocking solution overnight at 4° C. After washing, the membranes were incubated with a 1:2000 dilution of appropriate AP-conjugated secondary antibody and bands were detected using Western Blue stabilized AP substrate (Promega, Madison, Wis.). For analysis of secreted proteins, supernatants were collected at various time points, analyzed by SDS-PAGE and then immunoblotted as above for cmvIL-10, hIL-10, or serpin E1/PAI.
# [2] = tested on: MDA-MB-231 cells; experiment: Standard cell counts (hemacytometer); assay type: cell-based, human; conditions: 100 ng/ml, 6-well dishes
# Experimental: Cells were seeded into 96-well dishes at a density of 1×10^4 cell per well in complete medium with varying doses of cmvIL-10, and then cell viability measured at the indicated time points using the Cell Titer Glo Assay kit according to manufacturer's instructions (Promega). DNA synthesis was measured in cells prepared in the same way using the BrdU Cell Proliferation ELISA Kit (Roche, Basel, Switzerland). For experiments using inhibitors, cells were cultivated in 96-well dishes as above with a final concentration of 10 μM inhibitor and BrdU incorporation evaluated after 72 hrs. For cell counts, cells were seeded into 6-well plates at a density of 2×10^5 cells per well, harvested via trypsinization, and counted using a hemacytometer at the indicated time points. The TACS Annexin V-FITC Detection Kit (Trevigen, Gaithersburg, Md.) was used to stain cells harvested from 70% confluent T75 flasks that had been treated with 100 μM etoposide for 48 hrs in the presence or absence of 100 ng/ml cmvIL-10. Cells were then analyzed via flow cytometry to detect fluorescence. For viability assays, Cell Titer Glo reagent was utilized to quantify cells that had been seeded into 96-well dishes at a density of 1×10^4 cell per well in complete medium with varying doses of etoposide in the presence or absence of 100 ng/ml cmvIL-10 as indicated
# [3] = tested on: MDA-MB-231 cells; experiment: Transcriptional profiling, Human Tumor Metastasis RT2 Profiler PCR Array; assay type: cell-based; conditions: 100 ng/mL, 5 hrs
# Experimental: RNA was harvested from 10×10^6 MDA-MB-231 cells that were mock treated or treated with 100 ng/mL cmvIL-10 or hIL-10 for 5 hrs using the RNeasy Midi Kit and RNAse-Free DNase set (Qiagen, Valencia, Calif.). From the isolated RNA, cDNA was prepared using the RT^2 First Strand Kit (SA Biosciences, Frederick, Md.) and subsequently loaded into a 96-well breast cancer metastasis profiler PCR array (PAHS-028ZD) with system RT^2 SYBR Green Mastermix (SA Biosciences). The plates were run using the CFX96 Real-Time system cycler (BioRad, Hercules, Calif.) with the following amplification program: 95° C. for 10 min, 95° C. for […] with a slow ramp rate for 1.0 c/sec and 60° C. for 1 min. The data from three biological replicates for each treatment was analyzed by the ΔΔCT method according to manufacturer's instructions using the RT^2 profiler PCR array data analysis program located on the SABiosciences web portal and is reported as fold change relative to control.
molecule,measurement,setting,value
B1,83 kD band of phosphorylated Stat3 (pStat3),[1],detected
same,cell numbers,[2],higher cell numbers than control cultures
same,"Fold Change vs. Mock, ACTB",[3]; ACTB mRNA,1.0986 fold
same,"Fold Change vs. Mock, APC",[3]; APC mRNA,0.9681 fold
same,"Fold Change vs. Mock, B2M",[3]; B2M mRNA,0.9597 fold
same,"Fold Change vs. Mock, BRMS1",[3]; BRMS1 mRNA,0.8029 fold
same,"Fold Change vs. Mock, CCL7",[3]; CCL7 mRNA,0.8113 fold
same,"Fold Change vs. Mock, CD44",[3]; CD44 mRNA,1.1473 fold
same,"Fold Change vs. Mock, CD82",[3]; CD82 mRNA,0.6917 fold
same,"Fold Change vs. Mock, CDH1",[3]; CDH1 mRNA,0.6288 fold
same,CDH6 fold change expressed as negative fold (down-regulation),[3]; CDH6 mRNA,−1.23 fold
same,"Fold Change vs. Mock, CDH6",[3]; CDH6 mRNA,0.811 fold and 0.8113 fold
same,"Fold Change vs. Mock, CDH11",[3]; CDH11 mRNA,0.9033 fold
same,"Fold Change vs. Mock, CDKN2A",[3]; CDKN2A mRNA,0.8113 fold
same,"Fold Change vs. Mock, CHD4",[3]; CHD4 mRNA,0.8970 fold
same,"Fold Change vs. Mock, COL4A2",[3]; COL4A2 mRNA,1.0929 fold
same,"Fold Change vs. Mock, CST7",[3]; CST7 mRNA,0.7149 fold
same,"Fold Change vs. Mock, CTBP1",[3]; CTBP1 mRNA,0.6245 fold
same,"Fold Change vs. Mock, CTNNA1",[3]; CTNNA1 mRNA,0.8816 fold
same,"Fold Change vs. Mock, CTSK",[3]; CTSK mRNA,0.8043 fold
same,"Fold Change vs. Mock, CTSL1",[3]; CTSL1 mRNA,0.8212 fold
same,"Fold Change vs. Mock, CXCL12",[3]; CXCL12 mRNA,0.8113 fold
same,"Fold Change vs. Mock, CXCR4",[3]; CXCR4 mRNA,0.8084 fold
same,"Fold Change vs. Mock, DENR",[3]; DENR mRNA,0.9816 fold
same,"Fold Change vs. Mock, EPHB2",[3]; EPHB2 mRNA,0.6693 fold
same,"Fold Change vs. Mock, ETV4",[3]; ETV4 mRNA,0.5418 fold
same,"Fold Change vs. Mock, EWSR1",[3]; EWSR1 mRNA,0.9465 fold
same,"Fold Change vs. Mock, FAT1",[3]; FAT1 mRNA,1.2752 fold
same,"Fold Change vs. Mock, FGFR4",[3]; FGFR4 mRNA,0.5362 fold
same,"Fold Change vs. Mock, FLT4",[3]; FLT4 mRNA,0.8113 fold
same,"Fold Change vs. Mock, FN1",[3]; FN1 mRNA,1.1044 fold
same,"Fold Change vs. Mock, FXYD5",[3]; FXYD5 mRNA,0.9400 fold
same,"Fold Change vs. Mock, GAPDH",[3]; GAPDH mRNA,0.9335 fold
same,"Fold Change vs. Mock, GNRH1",[3]; GNRH1 mRNA,0.9970 fold
same,"Fold Change vs. Mock, HGF",[3]; HGF mRNA,0.8113 fold
same,"Fold Change vs. Mock, HPRT1",[3]; HPRT1 mRNA,1.2796 fold
same,"Fold Change vs. Mock, HPSE",[3]; HPSE mRNA,0.8620 fold
same,"Fold Change vs. Mock, HRAS",[3]; HRAS mRNA,1.0075 fold
same,"Fold Change vs. Mock, HTATIP2",[3]; HTATIP2 mRNA,0.7439 fold
same,"Fold Change vs. Mock, IGF1",[3]; IGF1 mRNA,0.8635 fold
same,"Fold Change vs. Mock, IL1B",[3]; IL1B mRNA,0.6266 fold
same,"Fold Change vs. Mock, IL18",[3]; IL18 mRNA,0.7362 fold
same,"Fold Change vs. Mock, ITGA7",[3]; ITGA7 mRNA,0.561 fold and 0.5609 fold
same,ITGA7 fold change expressed as negative fold (down-regulation),[3]; ITGA7 mRNA,−1.78 fold
same,"Fold Change vs. Mock, ITGB3",[3]; ITGB3 mRNA,1.0198 fold
same,"Fold Change vs. Mock, KISS1R",[3]; KISS1R mRNA,0.8113 fold
same,"Fold Change vs. Mock, KISS1",[3]; KISS1 mRNA,1.1394 fold
same,"Fold Change vs. Mock, KRAS",[3]; KRAS mRNA,1.0304 fold
same,"Fold Change vs. Mock, MCAM",[3]; MCAM mRNA,0.768 fold and 0.7688 fold
same,MCAM fold change expressed as negative fold (down-regulation),[3]; MCAM mRNA,−1.32 fold
same,"Fold Change vs. Mock, MDM2",[3]; MDM2 mRNA,0.9531 fold
same,"Fold Change vs. Mock, MET",[3]; MET mRNA,0.9833 fold
same,"Fold Change vs. Mock, METAP2",[3]; METAP2 mRNA,1.1295 fold
same,"Fold Change vs. Mock, MGAT5",[3]; MGAT5 mRNA,1.1795 fold
same,"Fold Change vs. Mock, MMP2",[3]; MMP2 mRNA,−1.1101 fold
same,"Fold Change vs. Mock, MMP3",[3]; MMP3 mRNA,2.75 fold and 2.7478 fold
same,"Fold Change vs. Mock, MMP7",[3]; MMP7 mRNA,0.9416 fold
same,"Fold Change vs. Mock, MMP9",[3]; MMP9 mRNA,1.0233 fold
same,"Fold Change vs. Mock, MMP10",[3]; MMP10 mRNA,0.5980 fold
same,"Fold Change vs. Mock, MMP11",[3]; MMP11 mRNA,0.7026 fold
same,"Fold Change vs. Mock, MMP13",[3]; MMP13 mRNA,0.8127 fold
same,"Fold Change vs. Mock, MTA1",[3]; MTA1 mRNA,0.7388 fold
same,MTSS1 fold change expressed as negative fold (down-regulation),[3]; MTSS1 mRNA,−3.28 fold
same,"Fold Change vs. Mock, MYC",[3]; MYC mRNA,0.8113 fold
same,"Fold Change vs. Mock, MYCL1",[3]; MYCL1 mRNA,0.5260 fold
same,"Fold Change vs. Mock, NF2",[3]; NF2 mRNA,1.0742 fold
same,"Fold Change vs. Mock, NME1",[3]; NME1 mRNA,1.0358 fold
same,"Fold Change vs. Mock, NME4",[3]; NME4 mRNA,0.8226 fold
same,"Fold Change vs. Mock, NR4A3",[3]; NR4A3 mRNA,0.5389 fold
same,"Fold Change vs. Mock, PLAUR",[3]; PLAUR (uPAR) mRNA,1.59 fold and 1.5891 fold
same,"Fold Change vs. Mock, PNN",[3]; PNN mRNA,1.3088 fold
same,"Fold Change vs. Mock, PTEN",[3]; PTEN mRNA,0.7809 fold
same,"Fold Change vs. Mock, RB1",[3]; RB1 mRNA,0.9548 fold
same,"Fold Change vs. Mock, RORB",[3]; RORB mRNA,0.6953 fold
same,"Fold Change vs. Mock, RPLP0",[3]; RPLP0 mRNA,1.0376 fold
same,"Fold Change vs. Mock, RPSA",[3]; RPSA mRNA,0.9631 fold
same,"Fold Change vs. Mock, SERPINE1",[3]; SERPINE1 (PAI-1) mRNA,2.68 fold and 2.6818 fold
same,"Fold Change vs. Mock, SET",[3]; SET mRNA,0.9664 fold
same,"Fold Change vs. Mock, SMAD2",[3]; SMAD2 mRNA,0.6869 fold
same,"Fold Change vs. Mock, SMAD4",[3]; SMAD4 mRNA,0.8384 fold
same,"Fold Change vs. Mock, SRC",[3]; SRC mRNA,0.5297 fold
same,"Fold Change vs. Mock, SSTR2",[3]; SSTR2 mRNA,0.5556 fold
same,"Fold Change vs. Mock, SYK",[3]; SYK mRNA,0.8590 fold
same,"Fold Change vs. Mock, TCF20",[3]; TCF20 mRNA,0.7823 fold
same,"Fold Change vs. Mock, TGEB1","[3]; TGEB1 (Transforming growth factor, beta 1) mRNA",0.7173 fold
same,"Fold Change vs. Mock, TIMP2",[3]; TIMP2 mRNA,0.7596 fold
same,"Fold Change vs. Mock, TIMP3",[3]; TIMP3 mRNA,0.8155 fold
same,"Fold Change vs. Mock, TIMP4",[3]; TIMP4 mRNA,0.7324 fold
same,"Fold Change vs. Mock, TNFSF10",[3]; TNFSF10 mRNA,0.8169 fold
same,"Fold Change vs. Mock, TP53",[3]; TP53 mRNA,0.6180 fold
same,"Fold Change vs. Mock, TRPM1",[3]; TRPM1 mRNA,0.8113 fold
same,"Fold Change vs. Mock, TSHR",[3]; TSHR mRNA,0.8113 fold
same,"Fold Change vs. Mock, VEGFA",[3]; VEGFA mRNA,0.554 fold and 0.5541 fold
same,VEGFA fold change expressed as negative fold (down-regulation),[3]; VEGFA mRNA,−1.80 fold
